In article PMC10985028 (Acta Pharmaceutica Sinica. B, 2024):

Molecular target: T1, HA-tagged USP48 (human, UniProt Q86UV5 1-1035)
T1 sequence (looked up): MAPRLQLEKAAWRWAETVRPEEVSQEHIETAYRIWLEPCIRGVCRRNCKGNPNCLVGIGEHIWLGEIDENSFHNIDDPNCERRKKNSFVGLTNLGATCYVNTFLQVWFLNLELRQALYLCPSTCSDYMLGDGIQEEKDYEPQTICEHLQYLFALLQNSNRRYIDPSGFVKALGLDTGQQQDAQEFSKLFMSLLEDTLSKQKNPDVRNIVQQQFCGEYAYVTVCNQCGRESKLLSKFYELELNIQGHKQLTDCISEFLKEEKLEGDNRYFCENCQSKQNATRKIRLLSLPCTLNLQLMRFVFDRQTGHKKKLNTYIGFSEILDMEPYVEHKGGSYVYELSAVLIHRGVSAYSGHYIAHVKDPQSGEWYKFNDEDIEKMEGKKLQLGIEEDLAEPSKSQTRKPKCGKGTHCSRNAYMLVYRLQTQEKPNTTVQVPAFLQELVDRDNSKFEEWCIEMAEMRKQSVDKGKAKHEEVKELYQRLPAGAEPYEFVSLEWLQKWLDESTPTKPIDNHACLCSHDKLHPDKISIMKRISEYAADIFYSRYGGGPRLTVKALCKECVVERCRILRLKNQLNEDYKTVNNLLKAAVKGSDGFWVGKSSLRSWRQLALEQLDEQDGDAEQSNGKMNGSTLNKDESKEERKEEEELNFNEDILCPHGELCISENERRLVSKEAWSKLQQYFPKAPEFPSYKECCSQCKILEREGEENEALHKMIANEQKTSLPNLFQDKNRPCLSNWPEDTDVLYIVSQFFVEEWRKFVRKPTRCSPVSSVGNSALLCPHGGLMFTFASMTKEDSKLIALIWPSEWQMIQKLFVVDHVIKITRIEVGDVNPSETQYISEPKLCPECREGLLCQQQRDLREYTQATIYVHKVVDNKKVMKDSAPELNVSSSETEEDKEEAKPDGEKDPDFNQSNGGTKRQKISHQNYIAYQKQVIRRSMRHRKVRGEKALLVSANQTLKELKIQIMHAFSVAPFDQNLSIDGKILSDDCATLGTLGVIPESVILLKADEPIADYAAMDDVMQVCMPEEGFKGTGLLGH
Test: pull-down

B1: GST-HMGA2 (natural protein, human, UniProt P52926 1-109, looked up)
chain: MSARGEGAGQPSTSAQGQPAAPAPQKRGRGRPRKQQQEPTGEPSPKRPRGRPKGSKNKSPSKAAQKKAEATGEKRPRGRPRKWPQQVVQKKPAQEETEETSSQESAEED
binding result: binds
